Results taken from EP4711384A1 (WIO Bioscience Co., Ltd., dated 2026).
“And” between values parts separate entries of the source, which are not always exact repeats. Identical values can stand only once. Blank lines part the entries; values can stand above or below the binder they belong to.

What was measured:
[1] = target: T1, human IL-18R1 ECD-His (human) (UniProt Q13478); assay: sandwich ELISA, IL-18RAP ECD-hFc detection
T1 sequence: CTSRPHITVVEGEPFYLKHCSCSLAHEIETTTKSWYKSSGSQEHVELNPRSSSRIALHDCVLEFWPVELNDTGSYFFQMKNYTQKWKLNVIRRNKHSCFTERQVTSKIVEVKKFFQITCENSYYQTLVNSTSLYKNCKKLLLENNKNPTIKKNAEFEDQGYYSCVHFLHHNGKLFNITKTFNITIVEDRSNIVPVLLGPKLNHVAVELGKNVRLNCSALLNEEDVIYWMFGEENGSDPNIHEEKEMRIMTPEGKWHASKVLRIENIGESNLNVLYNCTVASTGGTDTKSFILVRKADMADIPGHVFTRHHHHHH

[2] = target: T2, human IL-18R1 and IL-18RAP on IL-18 Reporter HEK 293 Cells (human, UniProt Q13478 19-541; O95256 20-599); assay: cell-based or functional assay
T2 sequence (looked up) 1: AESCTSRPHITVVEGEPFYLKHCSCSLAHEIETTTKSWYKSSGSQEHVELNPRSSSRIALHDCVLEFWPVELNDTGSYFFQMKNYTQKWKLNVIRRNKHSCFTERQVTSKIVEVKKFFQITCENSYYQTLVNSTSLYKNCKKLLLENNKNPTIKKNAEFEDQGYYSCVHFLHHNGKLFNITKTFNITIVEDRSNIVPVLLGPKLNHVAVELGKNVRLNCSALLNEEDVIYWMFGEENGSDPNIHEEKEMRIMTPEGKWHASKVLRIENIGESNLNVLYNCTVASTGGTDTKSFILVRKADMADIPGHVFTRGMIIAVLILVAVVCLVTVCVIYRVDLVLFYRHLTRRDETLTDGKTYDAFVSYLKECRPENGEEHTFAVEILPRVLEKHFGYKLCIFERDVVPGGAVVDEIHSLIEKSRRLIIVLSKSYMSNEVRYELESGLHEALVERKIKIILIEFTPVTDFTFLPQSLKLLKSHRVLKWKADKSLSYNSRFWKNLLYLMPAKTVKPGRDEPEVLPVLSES
T2 sequence (looked up) 2: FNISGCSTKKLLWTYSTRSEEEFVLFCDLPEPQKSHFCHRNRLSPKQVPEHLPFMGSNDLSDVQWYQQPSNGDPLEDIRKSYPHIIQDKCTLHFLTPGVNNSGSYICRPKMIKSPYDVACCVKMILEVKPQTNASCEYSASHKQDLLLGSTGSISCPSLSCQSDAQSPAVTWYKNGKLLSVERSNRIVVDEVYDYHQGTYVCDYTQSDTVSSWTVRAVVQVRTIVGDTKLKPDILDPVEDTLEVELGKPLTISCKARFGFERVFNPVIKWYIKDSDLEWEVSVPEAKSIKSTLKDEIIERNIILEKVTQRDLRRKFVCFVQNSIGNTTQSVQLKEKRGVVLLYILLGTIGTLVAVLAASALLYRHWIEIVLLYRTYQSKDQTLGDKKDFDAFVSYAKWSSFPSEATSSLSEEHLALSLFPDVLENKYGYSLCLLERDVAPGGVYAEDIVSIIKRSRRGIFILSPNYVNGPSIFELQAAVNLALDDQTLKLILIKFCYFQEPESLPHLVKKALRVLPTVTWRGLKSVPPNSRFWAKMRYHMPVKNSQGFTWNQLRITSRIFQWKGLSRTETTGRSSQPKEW

[3] = target: T1, human IL-18R1 ECD-His (human); assay: phage ELISA, 4-fold dilution
[4] = target: T1, human IL-18R1 ECD-His (human); assay: phage ELISA, 16-fold dilution
[5] = target: T3, human IL-18RAP ECD-His (human) (UniProt O95256); assay: phage ELISA, 4-fold dilution
T3 sequence: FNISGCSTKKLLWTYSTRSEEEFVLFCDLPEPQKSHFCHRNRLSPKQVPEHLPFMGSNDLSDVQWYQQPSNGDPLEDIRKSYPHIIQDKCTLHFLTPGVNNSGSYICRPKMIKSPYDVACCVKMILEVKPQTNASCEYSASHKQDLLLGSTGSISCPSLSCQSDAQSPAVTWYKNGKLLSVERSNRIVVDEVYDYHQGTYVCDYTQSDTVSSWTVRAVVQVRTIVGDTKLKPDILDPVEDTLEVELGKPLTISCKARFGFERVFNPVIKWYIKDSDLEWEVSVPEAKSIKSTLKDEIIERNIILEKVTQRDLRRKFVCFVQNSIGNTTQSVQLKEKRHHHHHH

[6] = target: T3, human IL-18RAP ECD-His (human); assay: phage ELISA, 16-fold dilution

B1: Wio-02-05 (R1-C7-GGGGS-Rap-C10) (bispecific antibody)
chain: QVQLQESGGGPVQAEGSLRLSCTASGNLYRDPCMGWFRQAPGKDREGVAAMNTGADSTFYARSVKGRFTISHDNAKNTLYLQMNSVKPEDTAMYYCAASRYCTERTWTWRYDYDYWGQGTQVTVSSGGGGSQVQLQESGGGSVQPGGSLRLSCAASGFTYIPAYMGWFRQAPGKERERVASISSTDGSTTYADSVKGRFTVSQDTAKNTLYLQMNSLKPEDTAMYYCAAYQFGAFRVWGQGTQVTVSS
ELISA OD [1]: 1.88 and 1.9 | SEAP reporter OD, supernatant 5X [2]: 1.97 | SEAP reporter OD, supernatant 25X [2]: 1.86

B2: Wio-02-09 (R1-C10-GGGGS-Rap-F11) (bispecific antibody)
chain: QVQLQESGGGSVQAGETLRLSCTASGSTFDEYDMGWYRQAPGNKCELVSTISTIDGSTYYADSVKGRFTISQDNTKNTVYLQMNSLKPEDTGVYYCEADDRGTWDRGGCWGQGTQVTVSSGGGGSQVQLQESGGGSVQPGGSLRLSCAASGFTYIPAYMGWFRQAPGKERERVASIKTDGSTTYADSVNGRFTIAQDTAKNTLYLQMDSLKPEDTAMYYCAAYQFGAFRVWGQGTQVTVSS
ELISA OD [1]: 1.81 and 1.82 | SEAP reporter OD, supernatant 5X [2]: 1.91 | SEAP reporter OD, supernatant 25X [2]: 1.87

B3: Wio-02-30 (Rap-C10-GGGGS-R1-C10) (bispecific antibody)
chain: QVQLQESGGGSVQPGGSLRLSCAASGFTYIPAYMGWFRQAPGKERERVASISSTDGSTTYADSVKGRFTVSQDTAKNTLYLQMNSLKPEDTAMYYCAAYQFGAFRVWGQGTQVTVSSGGGGSQVQLQESGGGSVQAGETLRLSCTASGSTFDEYDMGWYRQAPGNKCELVSTISTIDGSTYYADSVKGRFTISQDNTKNTVYLQMNSLKPEDTGVYYCEADDRGTWDRGGCWGQGTQVTVSS
ELISA OD [1]: 2.16 and 2.29 | SEAP reporter OD, supernatant 5X [2]: 1.59 | SEAP reporter OD, supernatant 25X [2]: 1.18

B5: Wio-02-03 (R1-C7-GGGGS-Rap-F11) (bispecific antibody)
chain: QVQLQESGGGPVQAEGSLRLSCTASGNLYRDPCMGWFRQAPGKDREGVAAMNTGADSTFYARSVKGRFTISHDNAKNTLYLQMNSVKPEDTAMYYCAASRYCTERTWTWRYDYDYWGQGTQVTVSSGSQVQLQESGGGSVQPGGSLRLSCAASGFTYIPAYMGWFRQAPGKERERVASIKTDGSTTYADSVNGRFTIAQDTAKNTLYLQMDSLKPEDTAMYYCAAYQFGAFRVWGQGTQVTVSS
ELISA OD [1]: 1.74 and 1.85 | SEAP reporter OD, supernatant 5X [2]: 1.39 | SEAP reporter OD, supernatant 25X [2]: 0.608

B6: Rap-A10 (VHH)
VHH: QVQLQESGGGLVQAGGSLKLSCAASGYTYGPYCMGWFRQFPGKEREGVAAVGGDGRTWYGNSVKGRFTISQDNAKKTLYLQINALKPEDTAMYYCAADFDRTVCSDDIYDYTYRGQGTQVTVSS
ELISA OD [5]: 1.83 | ELISA OD [6]: 1.57

B11: R1-C10 (VHH)
VHH: QVQLQESGGGSVQAGETLRLSCTASGSTFDEYDMGWYRQAPGNKCELVSTISTIDGSTYYADSVKGRFTISQDNTKNTVYLQMNSLKPEDTGVYYCEADDRGTWDRGGCWGQGTQVTVSS
ELISA OD [3]: 1.33 | ELISA OD [4]: 0.977

B13: R1-C7 (VHH)
VHH: QVQLQESGGGPVQAEGSLRLSCTASGNLYRDPCMGWFRQAPGKDREGVAAMNTGADSTFYARSVKGRFTISHDNAKNTLYLQMNSVKPEDTAMYYCAASRYCTERTWTWRYDYDYWGQGTQVTVSS
ELISA OD [3]: 1 | ELISA OD [4]: 0.819

B14: Wio-02-31 (Rap-C10-GGGGS-R1-F9) (bispecific antibody)
chain: QVQLQESGGGSVQPGGSLRLSCAASGFTYIPAYMGWFRQAPGKERERVASISSTDGSTTYADSVKGRFTVSQDTAKNTLYLQMNSLKPEDTAMYYCAAYQFGAFRVWGQGTQVTVSSGGGGSQVQLQESGGGSVQAGETLRLSCTASGFTVHDMGWYRQAPGNECELVSTISSDGSTYYADSVKGRFTISQDNAKNTVYLQMNSLKPEDTAVYYCAADHFTGLQLAECKADFGYWGQGTQVTVSS
ELISA OD [1]: 2.17 and 2.18 | SEAP reporter OD, supernatant 5X [2]: 1.66 | SEAP reporter OD, supernatant 25X [2]: 1.77

B15: R1-A12 (VHH)
VHH: QVQLQESGGGPVQAGGSLRLSCSASTTAYDNACMGWFRQAPGKEREGVASIHLRDRTYYADSVKGRFTLSRDGASKTLYLQMNSLKPEDSGTYYCASSNICNGLNLQGNTYWGQGTQVTVSS
ELISA OD [3]: 2.71 | ELISA OD [4]: 2.64

More lines, now with the values ahead:

ELISA OD [3]: 2.76 | ELISA OD [4]: 2.71
B4: R1-E12 (VHH)
VHH: QVQLQESGGGSVQAGGSLRLSCVASGTTMSMNYMAWFRQAPGKEREGVASIFRSTHYADSVKGRFTIAEDSAKNTVYLQMNSLKPEDTAVYYCAAGRTKPYLTPLAESQYNYWGQGIQVTVSS

ELISA OD [3]: 2.04 | ELISA OD [4]: 1.63
B7: R1-F9 (VHH)
VHH: QVQLQESGGGSVQAGETLRLSCTASGFTVHDMGWYRQAPGNECELVSTISSDGSTYYADSVKGRFTISQDNAKNTVYLQMNSLKPEDTAVYYCAADHFTGLQLAECKADFGYWGQGTQVTVSS

ELISA OD [1]: 2.03 and 2.15 | SEAP reporter OD, supernatant 5X [2]: 2.85 | SEAP reporter OD, supernatant 25X [2]: 2.17
B8: Wio-02-11 (R1-C10-GGGGS-Rap-C10) (bispecific antibody)
chain: QVQLQESGGGSVQAGETLRLSCTASGSTFDEYDMGWYRQAPGNKCELVSTISTIDGSTYYADSVKGRFTISQDNTKNTVYLQMNSLKPEDTGVYYCEADDRGTWDRGGCWGQGTQVTVSSGGGGSQVQLQESGGGSVQPGGSLRLSCAASGFTYIPAYMGWFRQAPGKERERVASISSTDGSTTYADSVKGRFTVSQDTAKNTLYLQMNSLKPEDTAMYYCAAYQFGAFRVWGQGTQVTVSS

ELISA OD [1]: 1.87 and 1.94 | SEAP reporter OD, supernatant 5X [2]: 1.31 | SEAP reporter OD, supernatant 25X [2]: 1.37
B9: Wio-02-44 (Rap-A10-GGGGS-R1-E12) (bispecific antibody)
chain: QVQLQESGGGLVQAGGSLKLSCAASGYTYGPYCMGWFRQFPGKEREGVAAVGGDGRTWYGNSVKGRFTISQDNAKKTLYLQINALKPEDTAMYYCAADFDRTVCSDDIYDYTYRGQGTQVTVSSGGGGSQVQLQESGGGSVQAGGSLRLSCVASGTTMSMNYMAWFRQAPGKEREGVASIFRSTHYADSVKGRFTIAEDSAKNTVYLQMNSLKPEDTAVYYCAAGRTKPYLTPLAESQYNYWGQGIQVTVSS

ELISA OD [1]: 1.73 and 1.83 | SEAP reporter OD, supernatant 5X [2]: 1.78 | SEAP reporter OD, supernatant 25X [2]: 1.9
B10: Wio-02-23 (R1-F9-GGGGS-Rap-C10) (bispecific antibody)
chain: QVQLQESGGGSVQAGETLRLSCTASGFTVHDMGWYRQAPGNECELVSTISSDGSTYYADSVKGRFTISQDNAKNTVYLQMNSLKPEDTAVYYCAADHFTGLQLAECKADFGYWGQGTQVTVSSGGGGSQVQLQESGGGSVQPGGSLRLSCAASGFTYIPAYMGWFRQAPGKERERVASISSTDGSTTYADSVKGRFTVSQDTAKNTLYLQMNSLKPEDTAMYYCAAYQFGAFRVWGQGTQVTVSS

ELISA OD [1]: 2.05 and 2.04 | SEAP reporter OD, supernatant 5X [2]: 1.51 | SEAP reporter OD, supernatant 25X [2]: 1.23
B12: Wio-02-29 (Rap-A10-GGGGS-R1-A12) (bispecific antibody)
chain: QVQLQESGGGLVQAGGSLKLSCAASGYTYGPYCMGWFRQFPGKEREGVAAVGGDGRTWYGNSVKGRFTISQDNAKKTLYLQINALKPEDTAMYYCAADFDRTVCSDDIYDYTYRGQGTQVTVSSGGGGSQVQLQESGGGPVQAGGSLRLSCSASTTAYDNACMGWFRQAPGKEREGVASIHLRDRTYYADSVKGRFTLSRDGASKTLYLQMNSLKPEDSGTYYCASSNICNGLNLQGNTYWGQGTQVTVSS
